According to patent US20220064275A1 (SCHOLAR ROCK, published 2022):

Legend:
human proTGFβ1 C4S [1] = molecular target: T1, human proTGFβ1 C4S (human, UniProt P01137 30-390); assay: BLI (Octet Red384), proTGFβ1 C4S coupled to AR2G sensors, dissociation at pH 7; dissociation at pH 7
T1 construct: Small latent complex without presenting molecule; the cysteine that links to presenting molecules is changed to serine; also called small latent complex proTGFβ1 C4S; latent TGFβ1
Procedure: (§1) The antibodies were tested against sensor-immobilized human proTGFβ1 C4S, which contains a mutation in the prodomain to facilitate proTGFβ1 expression without disulfide linkage to a presentation molecule. Polystyrene 96-well black half area plates (Greiner Bio-One) and amine reactive second-generation (AR2G) biosensors (FortéBio) were utilized for this experiment.
(§2) AR2G biosensors were first allowed to hydrate in water offline for at least 10 minutes before the initiation of the experiment. Upon initiation of the experiment, AR2G tips were equilibrated in water for 1 minute. Then, the tips were moved into an activation solution for 5 minutes. The activation solution consists of 18 parts water, 1 part 400 mM EDC (1-Ethyl-3-[3-dimethylaminopropyl] carbodiimide hydrochloride), and 1 part 200 mM s-NHS (N-hydroxysulfosuccinimide). The activation solution is prepared immediately before use in the experiment. After tip activation, the tips were loaded for 3 minutes with a 10 ug/mL solution of human proTGFβ1 C4S in 10 mM sodium acetate buffer pH 5. After loading, the tips were quenched in ethanolamine pH 8.5 for 15 minutes. The tips were then baseline/blocked with a 20 minute incubation in 1× enhanced kinetics buffer.

human proTGFβ1 C4S [2] = molecular target: T1, human proTGFβ1 C4S; assay: BLI (Octet Red384), proTGFβ1 C4S coupled to AR2G sensors, dissociation at pH 5; dissociation at pH 5
Procedure: as §1, §2

[3] = molecular target: hLTBP1-proTGFβ1 complex made by transfected cells (cell-based potency assay) (human, UniProt Q14766 347-1721; P01137 30-390); assay: cell-based or functional assay
[4] = molecular target: hLRRC33-proTGFβ1 complex on cells (human, UniProt Q86YC3 19-692; P01137 30-390); assay: cell-based or functional assay
[5] = molecular target: hGARP-proTGFβ1 complex on cells (human, UniProt Q14392 20-662; P01137 30-390); assay: cell-based or functional assay
[6] = molecular target: hLTBP3-proTGFβ1 complex made by transfected cells (cell-based potency assay) (human, UniProt Q9NS15 44-1303; P01137 30-390); assay: cell-based or functional assay
[7] = molecular target: T2, human LRRC33-proTGFβ1 complex (human, UniProt Q86YC3 19-650; P01137 30-390); assay: BLI (Octet)
T2 construct: also called hLRRC33-proTGFβ1; hLRRC33

[8] = molecular target: T3, human LTBP3-proTGFβ1 complex (human, UniProt Q9NS15 866-1039); assay: BLI (Octet)
T3 construct: range 866-1039; also called hLTBP3-proTGFβ1; hLTBP3

[9] = molecular target: T4, human GARP-proTGFβ1 complex (human, UniProt Q14392 20-627; P01137 30-390); assay: BLI (Octet)
T4 construct: also called hGARP-proTGFβ1; hGARP

[10] = molecular target: T5, human LTBP1-proTGFβ1 complex (human, UniProt Q14766 873-1507); assay: BLI (Octet)
T5 construct: range 873-1507; biotinylated in Octet and MSD-SET; also called hLTBP1-proTGFβ1; hLTBP1

[11] = molecular target: T2, human LRRC33-proTGFβ1 complex; assay: MSD-SET, solution equilibrium titration
Procedure: (§3) MSD-SET assays were performed to measure affinities of the antibodies at equilibrium. Briefly, each test antibody was diluted 3-5 fold and samples were mixed with biotinylated antigen in a 48-well dish. The SET samples were equilibrated for 20-24 hours at room temperature. Meanwhile, a capture plate was coated with IgG (20 nM) and incubated overnight at 4° C. or 30 minutes at room temperature, followed by a blocking step with 5% BSA. After the capture plate was washed three times, SET samples were added and incubated for 150 seconds. The plate was washed once to remove unbound complexes. 250 ng/ml SA-Sulfotag was added then washed 3 times. 2× Read Buffer was added, and signals from the labeled bound complexes were read with the use of QuickPlex™ SQ 120 instrument.

[12] = molecular target: T3, human LTBP3-proTGFβ1 complex; assay: MSD-SET, solution equilibrium titration
Procedure: as §3

[13] = molecular target: T4, human GARP-proTGFβ1 complex; assay: MSD-SET, solution equilibrium titration
Procedure: as §3

[14] = molecular target: T5, human LTBP1-proTGFβ1 complex; assay: MSD-SET, solution equilibrium titration
Procedure: as §3

human proTGFβ1 C4S/R249A = molecular target: T6, human proTGFβ1 C4S/R249A (human, UniProt P01137 30-390); assay: X-ray crystal structure of the ternary complex
T6 construct: Expressed with kifunensine and treated with endoglycosidase H; also called uncleavable human proTGFβ1 variant

human proTGFβ1 C4S [15] = molecular target: T1, human proTGFβ1 C4S; assay: HDX-MS

T1 sequence (P01137 other isoform, or with tags, fused parts or gaps): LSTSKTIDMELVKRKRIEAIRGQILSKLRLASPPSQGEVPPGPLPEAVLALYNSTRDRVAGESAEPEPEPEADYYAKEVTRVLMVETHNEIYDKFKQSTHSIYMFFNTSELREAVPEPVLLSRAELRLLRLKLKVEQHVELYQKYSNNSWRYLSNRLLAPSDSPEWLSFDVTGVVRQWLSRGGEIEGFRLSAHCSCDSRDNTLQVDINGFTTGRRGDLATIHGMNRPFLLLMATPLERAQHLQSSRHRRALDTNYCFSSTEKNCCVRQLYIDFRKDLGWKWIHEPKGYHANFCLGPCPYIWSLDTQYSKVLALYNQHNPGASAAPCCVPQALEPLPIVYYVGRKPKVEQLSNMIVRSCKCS
T5 sequence (Q14766 873-1507 limits assumed, chain 1 of 2): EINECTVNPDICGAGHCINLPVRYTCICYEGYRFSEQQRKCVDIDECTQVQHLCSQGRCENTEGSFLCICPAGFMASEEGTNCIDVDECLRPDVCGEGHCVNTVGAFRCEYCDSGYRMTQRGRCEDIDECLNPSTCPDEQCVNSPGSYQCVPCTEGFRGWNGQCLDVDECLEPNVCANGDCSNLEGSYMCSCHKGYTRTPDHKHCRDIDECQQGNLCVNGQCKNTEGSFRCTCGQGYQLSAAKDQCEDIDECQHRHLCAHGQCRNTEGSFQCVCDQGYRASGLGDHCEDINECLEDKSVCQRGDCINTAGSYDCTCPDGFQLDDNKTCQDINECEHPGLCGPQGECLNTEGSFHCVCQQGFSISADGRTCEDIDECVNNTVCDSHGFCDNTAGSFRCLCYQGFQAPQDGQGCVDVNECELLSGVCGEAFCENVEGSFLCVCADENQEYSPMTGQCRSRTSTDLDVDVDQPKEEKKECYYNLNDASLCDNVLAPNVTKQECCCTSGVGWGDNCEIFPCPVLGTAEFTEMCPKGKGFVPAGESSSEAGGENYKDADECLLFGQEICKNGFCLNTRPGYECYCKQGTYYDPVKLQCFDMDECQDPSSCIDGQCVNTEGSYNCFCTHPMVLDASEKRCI
T5 sequence (chain, as listed by the source limits assumed, chain 2 of 2): as the sequence (P01137 other isoform, or with tags, fused parts or gaps) above, with S4C counted along it
T4 sequence (Q14392 20-627, chain 1 of 2): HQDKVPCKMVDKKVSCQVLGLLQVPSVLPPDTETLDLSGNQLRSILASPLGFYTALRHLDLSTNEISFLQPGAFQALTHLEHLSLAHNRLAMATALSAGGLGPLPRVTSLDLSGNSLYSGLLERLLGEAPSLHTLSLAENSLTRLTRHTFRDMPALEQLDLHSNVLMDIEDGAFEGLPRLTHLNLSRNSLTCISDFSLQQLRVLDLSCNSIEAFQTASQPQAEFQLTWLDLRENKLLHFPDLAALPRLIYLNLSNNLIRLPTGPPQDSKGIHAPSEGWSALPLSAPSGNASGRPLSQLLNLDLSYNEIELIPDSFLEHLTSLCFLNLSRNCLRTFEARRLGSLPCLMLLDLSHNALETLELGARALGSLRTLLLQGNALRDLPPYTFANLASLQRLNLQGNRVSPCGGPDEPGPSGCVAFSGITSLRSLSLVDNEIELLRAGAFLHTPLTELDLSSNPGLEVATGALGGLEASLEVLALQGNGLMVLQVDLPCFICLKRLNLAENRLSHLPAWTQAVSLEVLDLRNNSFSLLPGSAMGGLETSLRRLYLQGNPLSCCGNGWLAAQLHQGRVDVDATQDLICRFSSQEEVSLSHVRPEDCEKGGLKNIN
T4 sequence (P01137 30-390, chain 2 of 2): as the sequence (P01137 other isoform, or with tags, fused parts or gaps) above, with S4C counted along it
T2 sequence (Q86YC3 other isoform, or with tags, fused parts or gaps limits assumed, chain 1 of 2): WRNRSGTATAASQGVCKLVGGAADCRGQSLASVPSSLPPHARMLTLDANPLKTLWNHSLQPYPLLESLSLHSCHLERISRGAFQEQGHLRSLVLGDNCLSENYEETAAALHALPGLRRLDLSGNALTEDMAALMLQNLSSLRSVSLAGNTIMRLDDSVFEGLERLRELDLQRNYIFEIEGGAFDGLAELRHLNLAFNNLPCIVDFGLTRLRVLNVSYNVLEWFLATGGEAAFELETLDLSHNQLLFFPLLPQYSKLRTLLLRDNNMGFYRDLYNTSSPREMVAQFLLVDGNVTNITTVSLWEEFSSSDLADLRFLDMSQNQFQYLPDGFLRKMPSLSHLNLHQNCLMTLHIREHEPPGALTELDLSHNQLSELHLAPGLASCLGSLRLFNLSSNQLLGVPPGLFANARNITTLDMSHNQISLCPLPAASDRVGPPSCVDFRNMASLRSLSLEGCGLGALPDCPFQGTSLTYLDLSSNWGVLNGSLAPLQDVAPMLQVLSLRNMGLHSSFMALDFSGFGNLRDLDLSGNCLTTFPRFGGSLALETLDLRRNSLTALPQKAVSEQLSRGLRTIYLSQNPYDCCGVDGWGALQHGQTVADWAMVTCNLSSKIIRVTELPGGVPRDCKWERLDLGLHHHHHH
T2 sequence (P01137 30-390 limits assumed, chain 2 of 2): as the sequence (P01137 other isoform, or with tags, fused parts or gaps) above, with S4C counted along it
T3 sequence (Q9NS15 866-1039 limits assumed, chain 1 of 2): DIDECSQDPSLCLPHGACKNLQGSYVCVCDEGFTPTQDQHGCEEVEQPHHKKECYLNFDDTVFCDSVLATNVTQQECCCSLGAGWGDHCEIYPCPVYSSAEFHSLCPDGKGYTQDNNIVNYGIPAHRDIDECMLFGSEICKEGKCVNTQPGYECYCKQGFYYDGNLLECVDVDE
T3 sequence (chain, as listed by the source limits assumed, chain 2 of 2): as the sequence (P01137 other isoform, or with tags, fused parts or gaps) above, with S4C counted along it
Sequence of hLRRC33-proTGFβ1 complex on cells (Q86YC3 19-692 limits assumed, chain 1 of 2): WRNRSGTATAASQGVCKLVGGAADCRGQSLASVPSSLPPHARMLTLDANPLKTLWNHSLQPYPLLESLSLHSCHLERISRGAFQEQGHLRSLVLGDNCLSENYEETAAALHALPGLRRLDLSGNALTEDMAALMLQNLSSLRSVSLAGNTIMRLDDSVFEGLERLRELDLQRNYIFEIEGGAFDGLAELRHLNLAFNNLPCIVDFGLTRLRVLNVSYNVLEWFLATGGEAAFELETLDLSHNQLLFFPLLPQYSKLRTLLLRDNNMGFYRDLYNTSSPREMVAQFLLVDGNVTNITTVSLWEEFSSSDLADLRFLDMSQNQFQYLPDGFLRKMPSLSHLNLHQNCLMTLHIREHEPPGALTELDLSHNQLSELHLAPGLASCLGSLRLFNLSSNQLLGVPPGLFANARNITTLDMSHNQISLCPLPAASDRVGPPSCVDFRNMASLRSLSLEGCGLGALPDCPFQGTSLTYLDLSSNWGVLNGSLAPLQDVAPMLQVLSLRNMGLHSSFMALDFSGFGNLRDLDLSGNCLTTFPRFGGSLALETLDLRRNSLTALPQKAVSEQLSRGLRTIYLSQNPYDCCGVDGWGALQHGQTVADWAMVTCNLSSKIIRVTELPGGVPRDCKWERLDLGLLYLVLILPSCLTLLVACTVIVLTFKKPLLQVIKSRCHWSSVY
Sequence of hLRRC33-proTGFβ1 complex on cells (P01137 30-390 limits assumed, chain 2 of 2): as the sequence (P01137 other isoform, or with tags, fused parts or gaps) above, with S4C counted along it

B1: Ab2 (antibody, human IgG4 S228P, kappa, V domains shown)
VH: EVQLLESGGGLVQPGGSLRLSCAASGFTFADYAMTWVRQAPGKGLEWVSAISGSGAATYFADSVKGRFTISRDNSKNTLYLQMNSLRAEDTAVYYCARVSSGHWDFDYWGQGTLVTVSS
VL: DIQLTQSPSSLSASVGDRVTITCRASQSISSYLNWYQQKPGKAPKLLIYAASNLQSGVPSRFSGSGSGTDFTLTISSLQPEDFATYYCQQTYTVPLTFGGGTKVEIKR
**Q.** B1 was tested. Which koff (human proTGFβ1 C4S [1]) did it give?
**A.** 0.00278 s⁻¹

**Q.** What about the koff (human proTGFβ1 C4S [2]) of the same binder?
**A.** 0.00561 s⁻¹

**Q.** And the “IC50, reporter cell assay of TGFβ1 activation” value (“IC50, reporter cell assay” below) [3]?
**A.** 3.39 nM

**Q.** What about the “IC50, reporter cell assay” value [4] of the same binder?
**A.** 1.38 nM

**Q.** What about the “IC50, reporter cell assay” value [5] of the same binder?
**A.** 0.776 nM

**Q.** And the “IC50, reporter cell assay” value [6]?
**A.** 0.867 nM

**Q.** What about the Kd [7] of the same binder?
**A.** 0.508 nM

**Q.** And the Kd [8]?
**A.** 0.148 nM

**Q.** What about the Kd [9] of the same binder?
**A.** 0.778 nM

**Q.** What about the Kd [10] of the same binder?
**A.** 0.165 nM

**Q.** What about the Kd [11] of the same binder?
**A.** 3.2 nM

**Q.** And the Kd [12]?
**A.** 0.171 nM

**Q.** And the Kd [13]?
**A.** 1.4 nM

**Q.** What about the Kd [14] of the same binder?
**A.** 0.36 nM

B2: Ab2 Fab (Fab, V domains shown)
VH: EVQLLESGGGLVQPGGSLRLSCAASGFTFADYAMTWVRQAPGKGLEWVSAISGSGAATYFADSVKGRFTISRDNSKNTLYLQMNSLRAEDTAVYYCARVSSGHWDFDYWGQGTLVTVSS
VL: DIQLTQSPSSLSASVGDRVTITCRASQSISSYLNWYQQKPGKAPKLLIYAASNLQSGVPSRFSGSGSGTDFTLTISSLQPEDFATYYCQQTYTVPLTFGGGTKVEIK
notes: Fab of Ab2; C-terminally 6x-His tagged in the crystallography work
**Q.** Does B2 bind (human proTGFβ1 C4S/R249A)?
**A.** binds

B3: Ab6 Fab (Fab, V domains shown)
VH: EVQLVESGGGLVQPGGSLRLSCTASGFTFSSFSMDWVRQAPGKGLEWVSYISPSADTIYYADSVKGRFTISRDNAKNTLYLQMNSLRAEDTAVYYCARGVLDYGDMLMPWGQGTLVTVSS
VL: DIQMTQSPSSLSASVGDRVTITCQASQDITNYLNWYQQKPGKAPKLLIYDASNLETGVPSRFSGSGSGTDFTFTISSLQPEDIATYYCQQADNHPPWTFGGGTKVEIK
notes: Fab of Ab6
**Q.** Does B3 bind (human proTGFβ1 C4S [15])?
**A.** binds
